Molecular target: the molecule itself
Experiment: cryo-EM structure

B1: Lcb2 (enzyme, S. cerevisiae)
chain: MSTPANYTRVPLCEPEELPDDIQKENEYGTLDSPGHLYQVKSRHGKPLPEPVVDTPPYYISLLTYLNYLILIILGHVHDFLGMTFQKNKHLDLLEHDGLAPWFSNFESFYVRRIKMRIDDCFSRPTTGVPGRFIRCIDRISHNINEYFTYSGAVYPCMNLSSYNYLGFAQSKGQCTDAALESVDKYSIQSGGPRAQIGTTDLHIKAEKLVARFIGKEDALVFSMGYGTNANLFNAFLDKKCLVISDELNHTSIRTGVRLSGAAVRTFKHGDMVGLEKLIREQIVLGQPKTNRPWKKILICAEGLFSMEGTLCNLPKLVELKKKYKCYLFIDEAHSIGAMGPTGRGVCEIFGVDPKDVDILMGTFTKSFGAAGGYIAADQWIIDRLRLDLTTVSYSESMPAPVLAQTISSLQTISGEICPGQGTERLQRIAFNSRYLRLALQRLGFIVYGVADSPVIPLLLYCPSKMPAFSRMMLQRRIAVVVVAYPATPLIESRVRFCMSASLTKEDIDYLLRHVSEVGDKLNLKSNSGKSSYDGKRQRWDIEEVIRRTPEDCKDDKYFVN
modifications: pyridoxal 5'-phosphate (PLP) as internal aldimine with K366
B1: binds.

Reference: publication doi:10.1101/2023.02.03.526835 (bioRxiv, 2023)
